Measured values reported in US20090053243A1 (INSTITUTE FOR ANTIBODIES, published 2009).

Molecular target: T1, IgSF4 (Immunoglobulin superfamily member 4), human, as expressed by human cell lines (human, UniProt Q9BY67 45-442)
T1 construct: also called BL2; ST17
T1 sequence: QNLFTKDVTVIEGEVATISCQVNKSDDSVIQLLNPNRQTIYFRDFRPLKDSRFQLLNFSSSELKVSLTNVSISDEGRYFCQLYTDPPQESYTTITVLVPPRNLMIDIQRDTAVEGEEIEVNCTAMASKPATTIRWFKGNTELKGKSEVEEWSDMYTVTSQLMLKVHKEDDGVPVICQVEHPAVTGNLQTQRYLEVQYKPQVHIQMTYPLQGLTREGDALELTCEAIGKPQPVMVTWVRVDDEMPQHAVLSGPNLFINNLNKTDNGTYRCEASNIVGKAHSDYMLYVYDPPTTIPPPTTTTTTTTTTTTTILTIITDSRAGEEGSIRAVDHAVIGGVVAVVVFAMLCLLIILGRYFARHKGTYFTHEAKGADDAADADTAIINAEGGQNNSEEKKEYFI
Assay: statement in the ADCC experiment on VMRC-LCD target cells
Method: As target cells to be used, lung cancer derived cultured cells VMRC-LCD (provided from Japanese Collection of Research Bioresources) was grown in a liquid culture medium 1 (Minimum Essential Medium Alpha Medium: Invitrogen, 10% (v/v) fetal bovine serum: Equitic-Bio, 1% (v/v) Penicillin-Streptomycin Solution: Sigma-Aldrich) on a culture dish having a diameter of 150 mm. The liquid culture medium was removed, cells were washed with 10 ml of PBS twice, and liquid was removed. To this, 5 ml of 4% (w/v) collagenase Type IV (Invitrogen) was added and maintained at 37° C. for 10 minutes, thereby peeling the cells off from the culture dish.
Into a U-bottom 96-well multiplate (Becton Dickinson), 66 μl/well of target cells (2×10⁴ cells) were placed. To this, 66 μl of IgG antibody (3 μg/ml) was added, and then 66 μl of peripheral blood mononuclear leukocyte suspension (7.5×10⁵ cells) was added. The E/T ratio (ratio of the effector cells and target cells) was made to be 20. In order to prompt to associate cells, centrifugation (60×g, 4° C., 5 minutes) was carried out so as to precipitate cells in the bottom. Then, the cells were incubated for 240 minutes in a culture device under conditions of 37° C. and 5% CO₂, and thus the ADCC reaction was induced. Each antibody sample was prepared as a CTM solution. […] Furthermore, in each experiment group, three wells were used.

binding result: binds
B1: IgG type antibody 035-029 (antibody, V domains shown)
VH: EVQLVESGGGLVKPGGSLRLSCAASGFTFSSYAMSWVRQAPGKGLEWVSAISGSGGSTYYADSVKGRFTISRDNSKNTLYLQMNSLRAEDTALYYCARDNWYFDLWGRGTLVTVSS
VL: SSELTQDPAVSVALGQTVRITCQGDSLRSYYASWYQQKPGQAPVLVIYGKNNRLSGIPDRFSGSSSGNTASLTITGAQAEDEADYYCNSRDSSGNHVVFGGGTKLTVLG
notes: also called IgG antibody clone 035-029; human IgG type antibody clone recognizing IgSF4
